Results taken from US20240382677A1.

Biological target: recombinant human PD-1 dimer expressed with a C-terminal mouse IgG2a Fc tag (hPD-1-mFc) (human)
Experiment: competition ELISA, 1.5 nM hPD-1-mFc, coated hPD-L1-hFc; NBI

Sequence of recombinant human PD-1 dimer expressed with a C-terminal mouse IgG2a Fc tag (hPD-1-mFc) (human) (chain, as listed by the source limits assumed): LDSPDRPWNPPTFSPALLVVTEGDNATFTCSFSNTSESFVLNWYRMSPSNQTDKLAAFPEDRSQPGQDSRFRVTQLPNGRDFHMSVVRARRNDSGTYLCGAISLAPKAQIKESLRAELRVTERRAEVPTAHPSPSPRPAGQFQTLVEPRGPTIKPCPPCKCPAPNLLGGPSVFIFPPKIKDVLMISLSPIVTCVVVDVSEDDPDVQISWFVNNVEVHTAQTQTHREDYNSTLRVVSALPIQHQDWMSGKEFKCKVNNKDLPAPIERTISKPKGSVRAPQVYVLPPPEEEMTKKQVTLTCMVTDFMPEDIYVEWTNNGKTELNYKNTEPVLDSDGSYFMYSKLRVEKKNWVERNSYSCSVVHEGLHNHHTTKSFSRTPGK

% blocking at 200 nM antibody: -18%
Substance: Isotype control 2 (antibody)
